Results taken from the nanobody polyreactivity screen of Harvey et al. (2022).

Test: yeast display, Sf9 membrane polyspecificity reagent, FACS + sequencing; frameworks hold sequencing errors
Outline: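 Nanobodies came from a synthetic yeast display library in Saccharomyces cerevisiae BJ5465, induced with galactose for 36–48 hours and stained for 1 hour at 4 °C with 10% biotinylated, detergent-solubilized Sf9 membrane reagent. Cells were enriched on streptavidin microbeads and then FACS-sorted, with low and high (top ~1%) gates set on anti-HA fluorescence for expression and streptavidin fluorescence for reagent binding. Each polyreactivity label reflects the gate a clone came from. Genes were amplified by colony PCR, sequenced by MiSeq 2 × 250 and filtered by CDR length.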

Sequence | polyreactivity (PSR sort gate)
QVQLVESGGGLVQAGGSLRLSFAASGSTFRYNTRGWYRQAPGKEREVVATITWDTDSTYYADSVKGRFTISRDNAKNTVYLQMNSLKPEDTAVYYCAAETTWADKSYHYLQEYNYCGQGTQVTVSS | low polyreactivity
QVQLVESGGGLVQAGGSLRLSFAASGSTFTINAMGWYRPAPGKERELVAAINDGHDTYYADSVKGRFTISRDNAKNTVYLQMNSLKPEDTAVYFCAADIIYGYEVYTYTSDYWGQGTQVTVSS | low polyreactivity
QVQLVESGGGLVQAGGSLRLSFAASGSTFWLYPMGWYRQATAKDREFVATISSSTTYYADSVKGRFTISRDNAKNTVYLQMNCLKAEDTEVYYCAKQHGLTSGGSRTDYWGQGTQGTVSS | low polyreactivity
QVQLVESGGGLVQAGGSLRLSFAASGYTFAGNAMGWYRQAPGKERELVAVITYSGVSTYYADSVKGRFTISRDNAKNTVYLQMNSLKPEDTAVYYCNAVRERYASDYWGQGTQVTVSS | low polyreactivity
QVQLVESGGGLVQAGGSLRLSFADSGLILNFYAKSSYRQAPGKERELVAAISWNAGSTYYADSVKGRFTISREKSMNTGYVQMKSLKPEDTAVYYCAVLPGRYDKTASHYDYWGQGTQVTVSS | low polyreactivity
QVQLVESGGGLVQAGGSLRLSFADSGYNFPLYAMGWYIQAPGKERELVADINIGGASTYYADSVKGRFTISRDNAKNTFYLQMNSLKPEDTAVYSCAARDCYQRRQRRYDYWGQGTQVTVSS | low polyreactivity
QVQLVESGGGLVQAGGSLRLSFDASGFISGDNTMGWYRQAPGKERELVAAINSGGSTYYADSVKGRFTISRDNAKNTFYLQMNSLKPEDTAVYYCAADYSTWLRAYDFWGQGTQVTVSS | low polyreactivity
QVQLVESGGGLVQAGGSLRLSFSASGRTFPFYAMGWYRQEPGKERDLVAAITVSGGSTYYADSVKGRFTISRDNAKNTVYLQMNSLKPVDTAVYYCNAKRSDQSSKTFNYWGQGTQVTVSS | low polyreactivity
QVQLVESGGGLVQAGGSLRLSGAASGFIFVRYAMGWYRQAPGKERELVAAITRRGGSTHYADSVKGRFTISRDNAKNTVYLQMNSLTPEDTAVYYCAAGRQYYYLDRFPRVQGDYWGQGTQVTVSS | high polyreactivity
QVQLVESGGGLVQAGGSLRLSGAASGFISFPYAMGWDTQATGKERELVASITRSGGNTYYADSVKGRFTISRDNEKNTVYLQMNSLKPEDTAVYYCNAQIYTYRSGRGYSRMDYWGEGTQVTVSS | high polyreactivity
QVQLVESGGGLVQAGGSLRLSGAASGIIVPDYAMGWNKQAPGKERELVPDISFSAGSTYYADSVKGRFTISRDNAKNTVYLQMNSLKPDDTAVYVCAADQTSSYYDPWGDYWGQGTQVTVSS | low polyreactivity
QVQLVESGGGLVQAGGSLRLSGAASGRTFPYNTMGWYRQAPGKEWELVASITYTDGSTSYAYSVKGRFTISRDNAKNTVYLQMNCLKPEDTAVYYCAADYYAHQDYRFDYCGQGTQVTVSS | low polyreactivity
QVQLVESGGGLVQAGGSLRLSGAASGRTFYDYAMGWYRQAPGKERELVAAISWIDGSTYYADSVKGRFTISRDNAKNTVYLLMNSLKPEDTAVYYCAARRLVYYRKVKELDYWGQGTQVTVSS | high polyreactivity
QVQLVESGGGLVQAGGSLRLSGAASGSILWSYALGCYIQAPGKERELVAAIRSGGSTYYADSVKGRFTISRDNAKNTVYFQMNSLKPEDTAVLYCNATYAPLFEYDYWGQGTQVTVSS | low polyreactivity
QVQLVESGGGLVQAGGSLRLSIDASGRIFYPYVMGWYRQAPGQERELVAAISDSTGSTYYADSVKGRFTISRDNAKITVYLEMNSQKPEDTAVFYCAAGWFYATYWRFYYCGQGTQVTVSS | low polyreactivity
QVQLVESGGGLVQAGGSLRLSLLPPDSPSTTMLWDGIDRRLGKKGSWLPVFLPSGGTTYADSVKGRFTISRDNAKNTVYLQMNSLKPEDTAVYYCAASYYRTRWSWMYYWGQGTQVTLSS | low polyreactivity
QVQLVESGGGLVQAGGSLRLSRAASGATFYFNAMGWYSQAHGKERELVAGITYSGDSTYYADSVKGRFTLSRDNAKNPVYLQMNSLKPEDTAVYYCAADVDYDLDGDYWGQGTQVTVSS | low polyreactivity
QVQLVESGGGLVQAGGSLRLSSAASGFIFATYAMGWYRQAPGTERELVAAISQSGGGTYYADSVKGRFTISRDNAKNTVYLQMNSLKPEDTAVYYCAVDVSEWYHYDLYYWYYYWGQGTQVTVSS | high polyreactivity
QVQLVESGGGLVQAGGSLRLSSAASGFIFSTYAMGWYRQAPGKEREFVAAITRTGTRTYYADSVKGRFTISRDNAKNTVYLQMTSLKPEDTAVYYCAARAGVEAYGSRYGYWGQGTQGTVSS | high polyreactivity
QVQLVESGGGLVQAGGSLRLSSAASGFIFTYYAMGWYRQAPGKERELVAVITRGDSTYYADSVKGRFTISRDNAKNTVYLQMNSLKPEDTAVYYCAARGYFGWSGYSVPSTAYGYWGQGTQVTVSS | high polyreactivity
QVQLVESGGGLVQAGGSLRLSSAASGFTFRGYGMGWYRQAPAKERELVAAITSSGGSTYYADSVKGRFTISRDNAKNTVYLQMNSLKPEDTAVYYCAADRYTRYRYNYWGQGTQVTVSS | high polyreactivity
QVQLVESGGGLVQAGGSLRLSSAASGFTFVSYAMGWYRQAPGKERELVASISKRGGTTYYADSVKGRFTISRDNAKKTVFLQMNSLKPDDTAVYYCNARDTRRYVTYDSGYDYWGQGTQVTVSS | high polyreactivity

Sequence | polyreactivity (PSR sort gate)
QVQLVESGGGLVQAGGSLRLSSAASGFTFYWYAMGWYRQAPGKEREFVAAIDQSGGSTYYADSVKGRFTISRDNAKNTVYLQMNSLKPEDTAVYYCAARYILWDGYSWTEFDYWGQGTQVTVSS | low polyreactivity
QVQLVESGGGLVQAGGSLRLSSAASGGIFSSYAMGWYRQAPGKERELVAAISGSGGRTYYADSVKGRFTISRDNAKNTVYLQMNSLKPEDTSVYYCAAYPVNRVDYRYDYWGQGTQVTVSS | high polyreactivity
QVQLVESGGGLVQAGGSLRLSSAASGGIFWYYTMGWYRQAPGKERELVAAISWSGGRTYYADSVKGRFTISRDNAKNTVYLQMNSLKPEDTAVYYCAANFRGVLGWYHYEYWGQGTQVTVSS | high polyreactivity
QVQLVESGGGLVQAGGSLRLSSAASGGSFKRYVMVWYRQAPGKERELVAAITWSGGSTYYADSVKGRFTISRDNAKNTVYLQMNSLKPEDTAVYYCNVVTRWVTAAGYDYWGQGTQVTVSS | high polyreactivity
QVQLVESGGGLVQAGGSLRLSSAASGGTFGGYTRRWSRQAPGKERELVAAITRRGSSTFYADSVKGRFTISRDNAKKTVYLQMNSLKPEDTAVYYCAARYIVYLRTQSERYNSYDYWAQGTQVTVSS | high polyreactivity
QVQLVESGGGLVQAGGSLRLSSAASGIFRWNTKGWYRQAPRKERELVATISWGGGTTYYADSVKGRFTISRDNAKNTVYLQMNSLKPEDTAVYYCAKVYAVRIGMRYSYWGHGTQVTVSS | low polyreactivity
QVQLVESGGGLVQAGGSLRLSSAASGITFYFNAMRWYRQATGKVSEFVAAISFSGGGTYYADSVKGRFTISRDNAKITDYLDMNSLKPADTAVYYCNADYGRGTLRSIYDYWGQGTQVTVTS | low polyreactivity
QVQLVESGGGLVQAGGSLRLSSAASGITIRYNDMGWYRQAPGKERELVAAITFSGGSTYYPDSVKGRFTISRDNAMNTVYLQMNSLKPEDTAVYYCAKLGSTSSRGNYDYWGQGTQVTVSS | low polyreactivity
QVQLVESGGGLVQAGGSLRLSSAASGITSYGYAMGWNRQAPGKERELVASISWTGGNTYADSVKGRFTISRDNAKNTVYLQMNSLFPEDTAVYYCNAGRSWDYWYGYDYWGQGTHVTVSS | low polyreactivity
QVQLVESGGGLVQAGGSLRLSSAASGITYYGYAMGWYRQAPGKERELVAAISKSGGSTHYADSVKGRFTISRDNAINTVYLQMYRLKPEDTAVYYCAAAYWTRLRRMDYWGQGTQVTVSS | low polyreactivity
QVQLVESGGGLVQAGGSLRLSSAASGLILYSYAMGWYRQAPGKERELVADISSGGITNYADSVKGRFTISRDNAKNTVYLQMNSLKPEDTAVYYCAADTRPVNYILYDYWGQGTQVTVSS | low polyreactivity
QVQLVESGGGLVQAGGSLRLSSAASGLTFAYYTMGWYRQAPGKERELVAAISRSGSGTYYADSVKGRFTISRDNAKNTVYLQMNSLKPEDTAVYYCATRYYLKFLDGYNYWGQGTQVTVSS | high polyreactivity
QVQLVESGGGLVQAGGSLRLSSAASGLTFESYAIGWYRQAPWKERELVAAISFSCGSTNYADAVKGRFTISRDNAKNTVYLQLNSLKPEDTAVYYCAAEYGSPRGTGYDSWGQGTQVTVSS | high polyreactivity
QVQLVESGGGLVQAGGSLRLSSAASGNIFVYYAKGLYRHAPGKERELVAAISKRGGSTYYADSVKGRFTISRDNAKNTVYLQMNSLKPEDTAVYYCAALGHVDDSIYDYWGQGTQLTVSS | high polyreactivity
QVQLVESGGGLVQAGGSLRLSSAASGRIFEGYAMGWYRQAPGKERELVAAISSGGSTYYADSVKGRFTISRDNAKNTVYLQMNSLKPEDTAVYYCNAAHSVVSHGPGAGLEMDYWGQGTQVTVSS | low polyreactivity
QVQLVESGGGLVQAGGSLRLSSAASGRIFGVYAMGWYRQAPGKERELVAAITRSGGSTYYADSVKGRFTISRDNAKNTDYLQMKSLKPEDTAVYYCNRDFRGLAYSDRYDYWGQVTQVTVSS | low polyreactivity
QVQLVESGGGLVQAGGSLRLSSAASGRIFHPYAMGWYRPAPGQERELVAAITNSGGITYADSVKGRFTISRGNAKNTVYLQMNSLKPEDTAVYYCNTATNRFHYKYRKPYDYWGQGTQVTVSS | low polyreactivity
QVQLVESGGGLVQAGGSLRLSSAASGRIFKRYTMGSYRQAPGKERELVAANTKRADRTNYADSVNGRFTISRDNAKNTVYLQMNSLKAVDTAVYYCNAEGQNDHPSNGYISYNYDYWGQGTQVTVSS | low polyreactivity
QVQLVESGGGLVQAGGSLRLSSAASGRIFQLYTMGWYRQAPGKEREMVAAITSGTSTSYADSVKGRFTISRDNAKNSVYLQMNSLKPEDTAVYYCNKGSVSYCSVFVPYESDYWGQGTQVTVSS | low polyreactivity
QVQLVESGGGLVQAGGSLRLSSAASGRIFRINAMGWYRQAPGKERELVADITSGGSTNYADSVKGRFTISRDNAKNTVYLQMNSLKPEDTAVYYCAAAYVTYRTRLDYWGQGTQVTVSS | low polyreactivity
QVQLVESGGGLVQAGGSLRLSSAASGRIFRPYDMGWYRQAPGKERELVAAITQSGGITSYADSVKGRFTISRDNAMNTVYLQMNSLTPEDTAVYYCASTSRYTRSHYDWYDYWGQGTQVTVSS | low polyreactivity
